Data on 5 molecules can be found in article PMC6057269, “A Flat BAR Protein Promotes Actin Polymerization at the Base of Clathrin-Coated Pits” (Cell, 2018).

Residue numbers refer to the chain shown, from its start.

Data set [1] deals with the molecule itself. Nature of the data set: SEC-MALS; Superdex S-200 10/300, 150 mM NaCl, 20 mM HEPES pH 7.5, 500 μM TCEP; F2B12 at two concentrations. (In gel filtration, larger molecules generally elute earlier.)
Data set [2] concerns the molecule itself. Description: cryo-EM structure; single particle cryo-EM of F2B1 at 0.15-0.3 mg/ml; C2 symmetry applied; 9.2 Å reconstruction.
Data set [3] deals with T1, ITSN1 SH3d (aa1076-1138), recombinant (human, UniProt Q15811-1 1076-1138).
T1 construct: Intersectin 1 long form (ITSN1L), human, fourth SH3 domain (SH3d), residues 1076-1138; The purification of this protein is not described; the tag was probably cleaved as for the FCHSD2 proteins (surmised); also called pOPINS-ITSN1-SH3d; source: E. coli, 6xHis-SUMO construct (pOPINS)
T1 sequence (looked up): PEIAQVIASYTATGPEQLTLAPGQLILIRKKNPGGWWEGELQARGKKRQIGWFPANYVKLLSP
Nature of the data set: pull-down; GST-tagged SH3 domains on glutathione beads incubated with recombinant protein for 10 min at room temperature, 6 washes; Coomassie stained gel. The following applies: both partners purified.

Data set [4] concerns the target T2, GST-tagged ITSN1 SH3d (aa1076-1138) T1086A (human, UniProt Q15811-1 1076-1138, T1086A).
T2 construct: Intersectin 1 long form (ITSN1L), human, SH3d, residues 1076-1138; also called crystal contact control mutant T1086; not shown: GST, N-terminal, kept
T2 sequence (looked up): T1 sequence (looked up) with T11A
The description is as above. Particulars: both partners purified.

Data set [5] concerns the target T1, ITSN1 SH3d (aa1076-1138), recombinant. Description: ITC; isothermal titration calorimetry of FCHSD2 SH3-2 and ITSN1 SH3d; conditions and direction of titration not told. The following applies: both partners purified. (In general: In ITC the heat of successive injections is recorded.)

B1: FCHSD2 BAR + SH3-1 + SH3-2 (F2B12: aa1-629) (domain or fragment, human, UniProt O94868-1 1-629, looked up)
chain: MQPPPRKVKVTQELKNIQVEQMTKLQAKHQAECDLLEDMRTFSQKKAAIEREYAQGMQKLASQYLKRDWPGVKADDRNDYRSMYPVWKSFLEGTMQVAQSRMNICENYKNFISEPARTVRSLKEQQLKRCVDQLTKIQTELQETVKDLAKGKKKYFETEQMAHAVREKADIEAKSKLSLFQSRISLQKASVKLKARRSECNSKATHARNDYLLTLAAANAHQDRYYQTDLVNIMKALDGNVYDHLKDYLIAFSRTELETCQAVQNTFQFLLENSSKVVRDYNLQLFLQENAVFHKPQPFQFQPCDSDTSRQLESETGTTEEHSLNKEARKWATRVAREHKNIVHQQRVLNDLECHGAAVSEQSRAELEQKIDEARENIRKAEIIKLKAEARLDLLKQIGVSVDTWLKSAMNQVMEELENERWARPPAVTSNGTLHSLNADTEREEGEEFEDNMDVFDDSSSSPSGTLRNYPLTCKVVYSYKASQPDELTIEEHEVLEVIEDGDMEDWVKARNKVGQVGYVPEKYLQFPTSNSLLSMLQSLAALDSRSHTSSNSTEAELVSGSLNGDASVCFVKALYDYEGQTDDELSFPEGAIIRILNKENQDDDGFWEGEFNGRIGVFPSVLVEELSA
notes: FCHSD2, human, F-BAR + SH3-1 + SH3-2, residues 1-629; also called FCHSD2 (F2B12 construct); source: E. coli Rosetta (DE3), purified (HisTrap, anion exchange, Sumo protease, Superdex 200); not shown: His-SUMO, N-terminal, cleaved
One may read the stoichiometry N as a count of units in the complex or per binding partner. As to B1, in data set [1], the “stoichiometry N” value is 2.

B2: FCHSD2 BAR + SH3-1 (F2B1: aa1-530) (domain or fragment, human, UniProt O94868-1 1-530, looked up)
chain: MQPPPRKVKVTQELKNIQVEQMTKLQAKHQAECDLLEDMRTFSQKKAAIEREYAQGMQKLASQYLKRDWPGVKADDRNDYRSMYPVWKSFLEGTMQVAQSRMNICENYKNFISEPARTVRSLKEQQLKRCVDQLTKIQTELQETVKDLAKGKKKYFETEQMAHAVREKADIEAKSKLSLFQSRISLQKASVKLKARRSECNSKATHARNDYLLTLAAANAHQDRYYQTDLVNIMKALDGNVYDHLKDYLIAFSRTELETCQAVQNTFQFLLENSSKVVRDYNLQLFLQENAVFHKPQPFQFQPCDSDTSRQLESETGTTEEHSLNKEARKWATRVAREHKNIVHQQRVLNDLECHGAAVSEQSRAELEQKIDEARENIRKAEIIKLKAEARLDLLKQIGVSVDTWLKSAMNQVMEELENERWARPPAVTSNGTLHSLNADTEREEGEEFEDNMDVFDDSSSSPSGTLRNYPLTCKVVYSYKASQPDELTIEEHEVLEVIEDGDMEDWVKARNKVGQVGYVPEKYLQFPTS
notes: FCHSD2, human, F-BAR + SH3-1, residues 1-530; also called FCHSD2 F-BAR+SH3-1; source: E. coli Rosetta (DE3), purified (HisTrap, anion exchange, Sumo protease, Superdex 200); not shown: His-SUMO, N-terminal, cleaved
On to B2, for which the binding result in data set [2] was “binds”.

B3: GST-tagged FCHSD2 SH3-2 (aa568-629) N613A (domain or fragment, human, UniProt O94868-1 568-629, looked up)
chain: SVCFVKALYDYEGQTDDELSFPEGAIIRILNKENQDDDGFWEGEFAGRIGVFPSVLVEELSA
notes: FCHSD2, human, second SH3 domain, residues 568-629; also called crystal contact control mutant N613; not shown: GST, N-terminal, kept
On to B3, for which the binding result in data set [3] is listed as “binds”.

B4: GST-tagged FCHSD2 SH3-2 (aa568-629) D583A (domain or fragment, human, UniProt O94868-1 568-629, looked up)
chain: B3 chain with D16A, A46N
notes: FCHSD2, human, second SH3 domain, residues 568-629; also called crystal contact control mutant D583; not shown: GST, N-terminal, kept
Regarding B4, the binding result in data set [3] is recorded as “binds”.

B5: FCHSD2 SH3-2 (aa568-629), recombinant (domain or fragment, human, UniProt O94868-1 568-629, looked up)
chain: B3 chain with A46N
notes: FCHSD2, human, second SH3 domain, residues 568-629; that the same preparation was the prey of the GST pull-downs and the ITC sample is surmised; also called pOPINS-FCHSD2 SH3-2; F2S2; source: E. coli Rosetta (DE3), purified (HisTrap, anion exchange, Sumo protease, Superdex 200); not shown: His-SUMO, N-terminal, cleaved
A word on the Kd: it is the free concentration of one partner at which half of the binding sites on the other are occupied at equilibrium, for simple one-to-one binding. On to B5, for which the binding result in data set [4] is “binds”. Moreover, in data set [5], the dissociation constant Kd is 248 nM and the “stoichiometry N” value was around 1.
